The source of these data is the Immune Epitope Database (IEDB).

For the first assay, the target named is HLA-A*03:01. The assay is described as follows: IEDB peptide-MHC binding, purified MHC/competitive/radioactivity; ≥ and ≤ were set here for values at or beyond the usual limits of such assays. As to conditions: source organism: unidentified.
As usually defined, the IC50 is the concentration needed to halve the response being measured. As to ALSPVLIPR, the IC50 amounted to 4.8 nM.

On to RLADKSVLVCKG, for which the IC50 is 343 nM.

Regarding GSTCIYGGAPK, the IC50 turned out to be 666 nM.

Consider NTCQDAAIVGYK, for which the IC50 was found to be 1310 nM.

As to QTALVEIIK, the IC50 came out at 2720 nM.

Consider QFLEENTNILK, for which the IC50 came to 18600 nM.

For the sequence IISIVTGLK, the IC50 stood at 14 nM.

With PSVGPVLGR, the 50% inhibitory concentration (IC50) came to 2180 nM.

For the sequence GATCELPLQK, the IC50 was determined as 13100 nM.

With LDAGLKKQFYK, the IC50 came to 960 nM.

Take QDKVKTLTGK: the IC50 stood at 10000 nM.

With SLFSTSSKL, the half-maximal inhibitory concentration (IC50) was 8740 nM.

For the sequence LNDRGGSVIK, the IC50 stood at 10000 nM.

As to GFQNALLVR, the IC50 was determined as 8480 nM.

As for KISFPIIAK, the IC50 was found to be 0.78 nM.

For RVFPSNVICKG, the IC50 is 1830 nM.

For SVRELNFTK, the IC50 is 119 nM.

As to STLTDSLVCGK, the IC50 is 31 nM.

As to RAAPPPPPR, the 50% inhibitory concentration (IC50) amounted to 56 nM.

In the case of RAVPGPPAR, the IC50 amounted to 372 nM.

For the sequence AVYEGHVSCVKG, the IC50 is 12300 nM.

Turning to RTGVPPTIR, the IC50 is 2590 nM.

As for GITCPQVLIQK, the 50% inhibitory concentration (IC50) came out at 819 nM.

For RSLTGILGK, the IC50 was determined as 238 nM.

For RIKFSDDRVCKG, the IC50 was 25700 nM.

In the case of RAAAPPLPR, the IC50 stood at 175 nM.

Take GVVCPVSDILYK: the IC50 is 202 nM.

The next assay has as its target HLA-B*27:05. The assay is described as above. The following applies: source organism: unidentified.
Consider GRFEVGKKICLG, for which the IC50 came to 32 nM.

For RRVSQGLLGK, the half-inhibitory concentration (IC50) was 1.6 nM.

Turning to ERAGPLSGKKF, the IC50 stood at 16 nM.

On to PRPRGGSDL, for which the IC50 was determined as 466 nM.

Consider VRSPGATASSL, for which the IC50 is 986 nM.

As to RRYNGGVGRCQ, the IC50 was 16 nM.

Take ARVKEVEEMCKG: the IC50 came out at 3170 nM.

Turning to GRVCSNRHGLIR, the half-maximal inhibitory concentration (IC50) worked out at 657 nM.

In the case of LKRDKLFEK, the IC50 came to 10000 nM.

As for RRNDKQLCIG, the IC50 amounted to 108 nM.

GRNKLLQSW: the IC50 worked out at 10000 nM.

For ARCGGALLAL, the IC50 was found to be 5.3 nM.

PKLLGPLSL: the IC50 came to 27600 nM.

On to PRGSGGIGL, for which the IC50 worked out at 336 nM.

RGLASPPPVR: the IC50 was found to be 833 nM.

Take TRLVLDPVR: the IC50 was 241 nM.

With RRVYLEGRCVG, the IC50 was found to be 24 nM.

For GKLCQHIIKR, the IC50 came out at 5760 nM.

Take TRSTGLLGVK: the IC50 was determined as 1520 nM.

AHKEIHQQL: the IC50 came to 83 nM.

The target in the next assay is HLA-A*01:01. Described as above. As to conditions: source organism: unidentified.
As to EKPHSEAGTAF, the IC50 stood at 10000 nM.

Regarding LVIDNGSGMCKG, the 50% inhibitory concentration (IC50) stood at 26600 nM.

Turning to ADTDSPLRY, the IC50 was determined as 32 nM.

In the case of PHSPALQPI, the IC50 amounted to 1710 nM.

Regarding GLELSGCIVY, the IC50 stood at 5130 nM.

Take ETESQQIRY: the IC50 was determined as 30 nM.

Consider GCLDTAQRNLY, for which the IC50 was 201 nM.

For DKDGCMVEQY, the IC50 amounted to 10000 nM.

A further assay deals with HLA-B*07:02. The assay is described as above. As to conditions: source organism: unidentified.
PVEKNTVEL: the half-maximal inhibitory concentration (IC50) was 9210 nM.

Take PKASSGSFSL: the IC50 is 11300 nM.

Turning to PGRGARRLLALV, the IC50 worked out at 713 nM.

PVRPAAAAATAL: the IC50 is 3230 nM.

Turning to PSTLNVGTL, the IC50 was determined as 10000 nM.

Consider WSVMDQDSL, for which the IC50 is 10000 nM.

With PLRDARVSDL, the IC50 is 8490 nM.

As to SPLAASKECAV, the IC50 was found to be 367 nM.

Consider APRRPTQGTVTF, for which the concentration for half-maximal inhibition (IC50) turned out to be 4.3 nM.

In the case of LPRGGSVLVTCG, the concentration for half-maximal inhibition (IC50) was 554 nM.

Turning to NPRGARVIAL, the IC50 came to 0.96 nM.

Regarding LPPPARPPI, the 50% inhibitory concentration (IC50) stood at 111 nM.

For LGPRAAAAGAL, the IC50 turned out to be 33 nM.

On to VPAQSRPCVG, for which the half-maximal inhibitory concentration (IC50) was found to be 4590 nM.

With GVWEEVGCAKG, the IC50 came out at 266 nM.

Regarding RPRWGAAAS, the IC50 turned out to be 3.6 nM.

Consider PGREAVSKL, for which the IC50 came to 11500 nM.

Turning to FPRVSTPLA, the IC50 came out at 98 nM.
